Laboratory results: paper PMC7954794, “Protein context shapes the specificity of SH3 domain-mediated interactions in vivo” (Nature Communications, 2021)

Test system: Abp1 PPIs
Test: DHFR-PCA of Abp1 SH3-swapped baits (Fig. 2B-D, S2C, S2F);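 on Protein-protein interaction distance between Abp1 SH3-swapped baits, to ABP1: Euclidean distance between DHFR-PCA score profiles of the baits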;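 on Protein-protein interaction distance between Abp1 SH3-swapped baits, to BEM1-2: Euclidean distance between DHFR-PCA score profiles of the baits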;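 on Protein-protein interaction distance between Abp1 SH3-swapped baits, to BOI1: Euclidean distance between DHFR-PCA score profiles of the baits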;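 on Protein-protein interaction distance between Abp1 SH3-swapped baits, to BZZ1-1: Euclidean distance between DHFR-PCA score profiles of the baits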
Format: cell-based, Saccharomyces cerevisiae
Outline: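 Yeast DHFR-PCA in which Abp1 baits, carrying their SH3 replaced by CRISPR–Cas9 with one of 27 yeast SH3s or human CTTN, HCLS1 or DBNL SH3s, were mated against 575 SH3-associated DHFR F[3] preys plus 40 negative controls. Four tests were run per PPI. Diploids were selected twice (48 h, 30 °C), then grown 4 days on PCA selection media.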

[1] = number of PPIs, difference, Abp1 SH3-swapped with the listed SH3, Fig2D,S2F

B1: LSB3 (protein)
chain: MGINNPIPRSLKSETKKAAKILASFVKPNQVFGADQVIPPDVLKRAKGLAIITILKAGFLFSGRAGSGVIVARLKDGTWSAPSAIAMAGAGAGGMVGIELTDFVFILNTQDAVKSFSEFGTITLGGNVSVSAGPLGRSAEAAASASAGGVAAVFAYSKSKGLFAGVSVEGSAIIERREANRKFYGDNCTAKMILSGRIRPPPAVDPLFRVLESRAFNYRPSNGGRGSFDDDEDDYYDDDDYYNDIPSSFSSTDASSTRPNTRSTRRRAQSGSRYTFDDDDDDDDYGTGYSRNSRLAPTNSGGSGGKLDDPSGASSYYASHRRSGTAQSRARSSRNRWADDEYDDYDDDYESGYRRGNGRDRTKDREVDDLSNRFSKSRISSASTPQTSQGRFTAPTSPSTSSPKAVALYSFAGEESGDLPFRKGDVITILKKSDSQNDWWTGRVNGREGIFPANYVELV
modifications: left off: DHFR F[3], C-terminal, kept
Protein-protein interaction distance between Abp1 SH3-swapped baits, to ABP1 (Abp1 bait with swapped SH3, distance to bait with ABP1 SH3, sheet Fig2C): 13.53
Protein-protein interaction distance between Abp1 SH3-swapped baits, to BBC1 (distance to Abp1 bait with BBC1 SH3, sheet Fig2C): 13.63
Protein-protein interaction distance between Abp1 SH3-swapped baits, to BEM1-1 (distance to Abp1 bait with BEM1-1 SH3, sheet Fig2C): 19.15
Protein-protein interaction distance between Abp1 SH3-swapped baits, to BEM1-2 (distance to Abp1 bait with BEM1-2 SH3, sheet Fig2C): 36.03
Protein-protein interaction distance between Abp1 SH3-swapped baits, to BOI1 (distance to Abp1 bait with BOI1 SH3, sheet Fig2C): 16.12
Protein-protein interaction distance between Abp1 SH3-swapped baits, to BOI2 (distance to Abp1 bait with BOI2 SH3, sheet Fig2C): 19.6
Protein-protein interaction distance between Abp1 SH3-swapped baits, to BUD14 (distance to Abp1 bait with BUD14 SH3, sheet Fig2C): 22.11
Protein-protein interaction distance between Abp1 SH3-swapped baits, to BZZ1-1 (distance to Abp1 bait with BZZ1-1 SH3, sheet Fig2C): 10.79
Protein-protein interaction distance between Abp1 SH3-swapped baits, to BZZ1-2 (distance to Abp1 bait with BZZ1-2 SH3, sheet Fig2C): 16.06
Protein-protein interaction distance between Abp1 SH3-swapped baits, to CDC25 (distance to Abp1 bait with CDC25 SH3, sheet Fig2C): 30.47
Protein-protein interaction distance between Abp1 SH3-swapped baits, to CTTN (distance to Abp1 bait with CTTN SH3, sheet Fig2C): 16.7
Protein-protein interaction distance between Abp1 SH3-swapped baits, to CYK3 (distance to Abp1 bait with CYK3 SH3, sheet Fig2C): 31.13
Protein-protein interaction distance between Abp1 SH3-swapped baits, to DBNL (distance to Abp1 bait with DBNL SH3, sheet Fig2C): 10.88
Protein-protein interaction distance between Abp1 SH3-swapped baits, to FUS1 (distance to Abp1 bait with FUS1 SH3, sheet Fig2C): 23.48
Protein-protein interaction distance between Abp1 SH3-swapped baits, to HCLS1 (distance to Abp1 bait with HCLS1 SH3, sheet Fig2C): 10.8
Protein-protein interaction distance between Abp1 SH3-swapped baits, to HOF1 (distance to Abp1 bait with HOF1 SH3, sheet Fig2C): 34.67
Protein-protein interaction distance between Abp1 SH3-swapped baits, to HSE1 (distance to Abp1 bait with HSE1 SH3, sheet Fig2C): 12.29
Protein-protein interaction distance between Abp1 SH3-swapped baits, to LSB1 (distance to Abp1 bait with LSB1 SH3, sheet Fig2C): 3.731
Protein-protein interaction distance between Abp1 SH3-swapped baits, to LSB3 (distance to Abp1 bait with LSB3 SH3, sheet Fig2C): 0.00
Protein-protein interaction distance between Abp1 SH3-swapped baits, to MYO3 (distance to Abp1 bait with MYO3 SH3, sheet Fig2C): 9.625
Protein-protein interaction distance between Abp1 SH3-swapped baits, to MYO5 (distance to Abp1 bait with MYO5 SH3, sheet Fig2C): 8.063
Protein-protein interaction distance between Abp1 SH3-swapped baits, to NBP2 (distance to Abp1 bait with NBP2 SH3, sheet Fig2C): 21.33
Protein-protein interaction distance between Abp1 SH3-swapped baits, to PEX13 (distance to Abp1 bait with PEX13 SH3, sheet Fig2C): 7.361
Protein-protein interaction distance between Abp1 SH3-swapped baits, to PIN3 (distance to Abp1 bait with PIN3 SH3, sheet Fig2C): 5.817
Protein-protein interaction distance between Abp1 SH3-swapped baits, to RVS167 (distance to Abp1 bait with RVS167 SH3, sheet Fig2C): 7.852
Protein-protein interaction distance between Abp1 SH3-swapped baits, to SDC25 (distance to Abp1 bait with SDC25 SH3, sheet Fig2C): 36.63
Protein-protein interaction distance between Abp1 SH3-swapped baits, to SHO1 (distance to Abp1 bait with SHO1 SH3, sheet Fig2C): 11.76
Protein-protein interaction distance between Abp1 SH3-swapped baits, to SLA1-1 (distance to Abp1 bait with SLA1-1 SH3, sheet Fig2C): 32.92
Protein-protein interaction distance between Abp1 SH3-swapped baits, to SLA1-2 (distance to Abp1 bait with SLA1-2 SH3, sheet Fig2C): 23.82
Protein-protein interaction distance between Abp1 SH3-swapped baits, to SLA1-3 (distance to Abp1 bait with SLA1-3 SH3, sheet Fig2C): 5.438
Protein-protein interaction distance between Abp1 SH3-swapped baits, to YSC84 (distance to Abp1 bait with YSC84 SH3, sheet Fig2C): 3.425
PPIs gained by Abp1 - SH3-dependent PPIs gained by Abp1 [1]: 37
SH3-dependent PPIs - SH3-dependent PPIs gained by Abp1 [1]: 15
SH3-dependent PPIs gained by Abp1 (number of PPIs, Abp1 SH3-swapped with the listed SH3, DHFR-PCA, Fig2D,S2F): 4
